Test results taken from a protein production outcome set (Wang et al. 2014).

Assay: label from the status in PepcDB records
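Note: failed if final PepcDB status was selected cloned or expressed and not failed if soluble or beyond.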

Row | Sequence | protein production
1 | MIKLPVLLADINIQSLPTEPELILNNLAITTLVENLIILLLVATLVALVARWLKIPYVIGLVLAGLAIPRGLSVGLNPELILNFFLPILIFEAAINTDISRLRSTIKPITVLAGPGVVISAAITAVLLKIGLGLAWVTAAGVSVILTITDTVSVIAAFRSVPVPRRLATIVEGESMLNDGVAMVLLSVITTIHIQGGFSAGEGIRQIFVAFVGGGLVGLGLGYLCVGLFRQLNDDLSDILLTVSVSLGTFQIGQMLGVSSAIAVVVAGLVIGNLALKQTSASIKVTLLSFWEYAGFGVNTLIFLLVGIEVYPSILLSTIPAALIAIVAYQIGRVFSIYPLLYLLSFFDRPLPLRWQHVLIAGNVKGSLSMALALALPLTLPGRDQVVTLVFSTVMVSLIGQGLSLPWVVKKLQLSKPSPLAQKIAMLQLNLVTAKAAQGELKYLLEAGSLPKFLYEELFADYQARIANSEQELREFYNQRNLIFSEGEVEKKYIDGLYRRLYIAEKSAINDALAKGILADDISDEYLQVLNEKLLALQDD | failed
2 | MGITITDELLWAILKDELSDAEANALVWQALGYVWDEAQSCWKTDLVAPEWRQDYPEPPDFIASRPATVKLTRSIPAPYKQLLKEELGFAGYSINELVPRKTRRATMTNWLLAYRRSQQD | not failed
3 | MVSACGLIALGLDNQAARMAARLRDLAREWRALPPHAARRGAVAEQVAVLDRRHGLYSRALLLNYGALFAFVVTSLLWLGQAYWSVPPELPVLVFGLGVAMLAAMAVLVIASITLARSTIEAEAAEVLRERRAPPASGRPAPARG | failed
4 | MQVQHHNAHLSRSVQAQVARLVLQANLAYGESNSNGLSYIQRLKARNECREYLNQALALEADHAAALGLLGRVEMDDGQLEKAHALFNASLNRQPAQAQQYCNLGYWALKSERPALAEEYFLQALECDRQSAAAFCGVAHAKRLQGQFDVAYLHYRKLLQSGSEWDSVYSGMLSCAQHLQVHKADSDLALDAIALLRQEGLPHQEIGHFVGAIIQQQYDLDNPNAEIFLDAAAEDELLILALQKTLMPNAAVEELVVLLRRAIMAEVAQTASLRDELQPLCLAIAEYADRTGFALAAEDDEERLAATINESIMAQFAVGEPQEALIGSLMISAMYGALFHQNFAVQLGQWNLVDWPLAMQPIMAASYYNRAEEEAIKQNFDEKAEELCLEKTDVPQAWPAWSQLAYRTETSLKAVMAQELGLNTDNLPATLRIMVCGAQSGQRAMELAQYLNDVEVIAVDESLANIAKGTRMAQSLNMDNIVFWPWSIAQRFVADGHKVHWVEVGRLPSPAMTELSLAALINSASIAGAVVHMHTSMAEQTAGDKQIRRLIAEHQLQPTRTSLRQLRRMVLANKQDAVWSSLLQDDDFYSLGGCRDRWFRPQDANQLKELLALVSNEVEWKLVKARDEDGHSLATGPVQRQIQAEALGSEVQSLMGQNLSVYFQRRR | failed
5 | MPLVSMKEMLNKALEGKYAVGQFNMNNLEWTQAILAAAEEEKSPVILGVSEGAARHMTGFKTVVAMVKALIEEMNITVPVAIHLDHGSSFEKCKEAIDAGFTSVMIDASHHPFEENVETTKKVVEYAHARNVSVEAELGTVGGQEDDVIAEGVIYADPAECKHLVEATGIDCLAPALGSVHGPYKGEPNLGFAEMEQVRDFTGVPLVLHGGTGIPTADIEKAISLGTSKINVNTENQIEFTKAVREVLNKDQEVYDPRKFIGPGRDAIKATVIGKIREFGSNGKA | not failed
6 | MNRLREALKERGITQTELSTRLGKSFNMVNLYVANKHQPSIPTLFQIAEILDMDVRDLLVSNKQQNK | failed
7 | MSLSIVRIDAEDRWSDVVIYNNTLWYTGVPENLDADAFEQTANTLAQIDAVLEKQGSSKSRILDATIFLSDKADFAAMNKAWDAWVVAGHAPVRCTVQAGLMNPKYKVEIKIVAAVEGHHHHHH | not failed
8 | WRKDIVLPKDQAKGVRPYNPKFKDSEYFSRYNALINDERLIEFAKKNNYKITFFPHPDIQQQIVDFEKHDYVEFADYNSSYQMLFNSSNIMITDFSSVAFDFAYEKKPVIYYQYEKSYHFKLDYYDYKKMGFGDVLENHNSLVDKVIYYMKNNSRMEDKYRKRVDNFFAYTDKNNRNRIYNAILE | not failed
9 | MIAKEFETFLLGQEETFLTPAKNLAVLIDTHNADHATLLLSQMTYTRVPVVTDEKQFVGTIGLRDIMAYQMEHDLSQEIMADTDIVHMTKTDVAVVSPDFTITEVLHKLVDESFLPVVDAEGIFQGIITRKSILKAVNALLHDFSKEYEIRCQ | not failed
10 | MSYEKEFLKDFEDWVKTQIQVNQLAMATSQEVAQEDGDERAKDAFIRYESKLDAYEFLLGKFDNYKNGKAFHDIPDELFGARHY | not failed
11 | MSNGGSFTVEKLSLYGNPNIGVYLTASDSYVLAPDDIGADDVRTISEVLGVAMERVVRLRVLGMRLVGVLTTGNSRGILLPEGVDREVELVRKALEGVEVGIVPTRSNALGNVIVCNDRACLASPGLEKEALKTVSDTLGVEVVEGSVAGVYTVGSAIVVTNRGGLAHPDASEEELKFLSDVFKVPFEAGTINFGVEFVRTGLVANSYGALVGEDTTGPEIARIQVALGGGVK | failed
12 | MIKISVIIPIYNAENYIEKAFSSLKNQTLAQNEFEILCIDDKSTDNSLGKLKQLSKIHKNMRIINLHKNSGGPMIPRNKGIKEAKGKYIIFLDNDDYLGEEALERLFIQAEKNQSEVIFGKYVGINGRGVPQSQFKKGNRNEADILADNLVYTLAPHKMFQTAFLKTKKIYFDPNILIGEDQYFVMKAYVNAKVITVLADYDYYYVVSRGDENLSIKESKMDPREICKVVPAVVKEIEASPLHPTYKKTLIRAYIQRYFNDYITGNYNLDYKNMSERQKTFVQVMKDTIVCHLDEKMKNELPTKTRFMIDIIAENNPEKLIDVRMQMENFSKNQVVKVENGYIKGRFRKMRPQLAYDDVYDINHLNSSKVQLHSVTLQNNNYLLDISLEQSLLTRFQTALRLCLKERDGNLEIWISPLKMLSTERGIYAVDSTLFNHTCIWDLFIESEINGFKNRKRVGKDRDFEEIVSSNNTPLLIQNNSYQIKAYFTTPFSNLSFQIISE | failed
13 | MLILVILLVLVALAFDFINGFHDAANSIATVVSTRVLSPLVAVGWAAFFNFISAMPVLWGAELKVAATMGKGIVHFEQLKAGGISLVLMVVFAALMGAIVWNLLTWWWGLPSSSSHALAGGMIGASLPPLGFAGLIPSGILKIAAFIVLSPLIGMVLGSAMMVATAWVVRKNTPARVDRWFRRLQLVSAAIFSYSHGTNDAQKVMGIISVILYGTIWADRAAMTPGHFPVPFWVVLSCHAAIGLGTMFGGWRIVRTMGHNLTKLQPIGGFCAETGGGVTILALAHFGIPVSTTHTITGAIVGVGSTKGTRAVRWGVAGRIIWAWIFTIPAAAIVAGVIFLVTRAIVSVIGVG | failed
14 | MSRPPVFPPPQFPPPRPRPFQRTPPAIFPPILGLLALGLGLRRAAEIWGLPAGLAEAVLGATTGLGAFAVAAYAAKVAQRPGVVIEDLRVLPGRAGLAALVLGLLVLAAVLVPYGPAAARAVLVAGLGLQTILAVTVAALLLSGPKEGRVVTPAFHLHFVGFIIGGLTAAPVGWPGLGTVLLAVCAPVAAAIWIASLVQFLRRVPPPPLRPLLAIHLAPAALLGLVAGQQELPLVAQLCAAAGGVLLLAFLASARWLLAGGFSPLWGALTFPLAAYAGLLLVVWPQAGAVLLAAAALVIPPIAAKILQEWAKGRLAVRTNAAQA | failed
15 | MRALIVSNPNSTTQSAEMFRHVIPTLRAVPGLELRAQMTHYAGHARHMCENLTVEDYDVVIAVGGDGTVNEVINGLLGDLPSAPPALAVIPTGSANVFARALGLPADPAQAAEVLADALHKGSTRRINLGKWGS | failed
16 | MNTEPANVEDKLPMNILVLGSDEKQGGRSDTIMLVHIQKDFQPIVISIPRDTRVKVEGIKGYSKINAAYAYGKSKLAVKTVEDILGIKIDKYVVVNYEAVEKIVDLVGGVDVEVPFHLYYVDTTPGKELYINIPAGLQHLDGKKAVEFLRWRHNSNGKEYGRGGDLGRIEMQRKLLYALIEKMLKPQNIVRLPLIVQTVSKYTDHNFTKNEIMWFIQNVGKFNTQNIMMTILPGYPKYIDRVSYYILNEEKCRALIDDLNEPEVLKDSMKIKILSKSFDDKATQLKNDLESKGYSNVNLGRVSKLESSEVELKRVNRKYLELLKNDIDLSTYQVVYSPDYSDKFDVYIKVKLEHHHHHH | not failed
17 | MSDIESLGEAAGLFEEPEDFLPPPPKPHFAEYQRSHITKESKSDVKDIKLRLVGTSPLWGHLLWNAGIYTANHLDSHPELIKGKTVLELGAAAALPSVICALNGAQMVVSTDYPDPDLMQNIDYNIKSNVPEDFNNVSTEGYIWGNDYSPLLAHIEKIGNNNGKFDLIILSDLVFNHTEHHKLLQTTKDLLAEKGQALVVFSPHRPKLLEKDLEFFELAKNEFHLVPQLIEMVNWKPMFDEDEETIEVRSRVYAYYLTHEK | failed
18 | MPSFLEISPDKLNRLIGTPGAPRIIDVRTDEDFALDPRLVPGSIRRDHAEVASWADSIDADAVVVVCHRGAKLSHGVAAYLRHAGIEAESLAGGFEAWAAAGPAVPEAKLSRRDAQGRTVWVTRARPKIDRIACPWLIRRFIDPNAVFLFVPAPEVVAVGERFGAAPFDIEDVFWSHRGELCTFDVMVEEFGLASEPLLRLAQIVRAADTARLDLAPEASGLLAASLGLSRMYSDDLEQLEAGMLLYDAFFRWCRDATEETHNWPAPKKRALEHHHHHH | not failed
19 | MKGKVVSYLAAKKYGFIQGDDGESYFLHFSELLDKKDEGKLVKGSMVHFDPTPTPKGLAAKAISLPEVFIRERLVDFFTTRDNRPKNGTVIASFPIATRFFKDPSEGRRHLEQLAKHCGCNAVLNVSFEKDTFSKGNYRYTVHAFKGELALVTEKVPADAQELVVASAELLEKRKADVEQAVKQMSEAENLARQKQLSGCLGTLAIITLIPLALVLTAIAVFPA | failed
20 | MLVLSYILLFASALFAWNMGSHYSGAVMGMAYGSKSLTIRQATVIAATFAFLGTITASSGVVHTYAFSLVGTTTIRQLTAALLGASVAILISTILKLPASTIQVYTFSLLFVGLASNIKLMYGGIEIVLSMWILMPLAAMLLSYLLAPKLVSKLADDSRKLKIIIIGSSVFSSFTLGSNDVSSAISPLVKVGILTGIVPYVFGGFFIGLGLITWGQRLIRRVGTEVVKTNAPLAAAAQLTEAIVIISGNLVGYNASINQTIIMSIYGAKRSMKSHVVTPMIFRSILLNWTVSSLISAVFGLFFLFILNLYI | failed
21 | MTEGGRVSNTSRVTRRTGLRTAAAVAAALPLLSASPASASRNRGRRLDVMTFNLRFASASEPHSWAVRRPVMRELLRRERPHVIGTQEGLYQQVRDIEADLGPHYDWIGTGRAGGSRDEFMAVFYDTRRLAPLEYDHFWLSDTPDVIGSNTWGGGSIRMVTRVRFRDLADGDRPFHFLNTHLDNASQYARARAAALIADRIAGLDRSQPLVVTGDFNAAAHKNAVYETMLGAGLVDTWDTAAERGKLYGTFHGYKPLVPDGDRIDWILASPGVAAHCASINAFSSNGQFPSDHLPVQASLRLA | failed
22 | MEHREKCTRCGQCLEVCSRYEDLGVLDRLYGYLDGSSNIDSESLLRCLTCGLCISACPENLGIKPLISPSRQKWINENGLSERLEHHHHHH | failed
23 | MSKVNEITRESWILSTFPEWGTWLNEEIEQTVVEPNTFSMWWLGCTGIWLKSAGNTNLSIDFWCGTGKKTQKNRLMNTQHQMMRMGGVEALQPNLRTSIFPLDPFAIKEIDAVLASHDHADHIDVNVAAAVLQNCGEHVKFIGPQACVDLWLGWGVPQERCIVAKVGDVLEIGDVKIRVLDSFDRTALVTLPKGVSSYDKAILDGMDERAVNYLIETSGGSVYHSGDSHYSNYYAKHGNDYQIDVALLSYGENPRGVTDKMTSSDVLRAAESLDCQVVVPFHHDIWANFQNDPREIEVLWNMKKDRLQYQFAPFFWQVGGKYTYPTDKGRMHYQHFRGFQDIFKNEPELPYKAFL | not failed
24 | ANVKLLLPYILKWEGGFVHDPADAGGATNKGVTIATWKRVGYDKDGDGDIDVEDLKLLTDDDVLNRVLKPFYWDRWKADLIESQKVANILVDWVWGSGKYGIVIPQRILGVQADGIVGNKTLQAVNSADPDELFESIFDARREFLEDITARSIKKYEDSIGRKATERELLRHTNKRFLRGWLNRLEDI | not failed
